# According to patent publication US10385103B2, “Cell-permeable (ICP)-SOCS3 recombinant protein and uses thereof” (CELLIVERY THERAPEUTICS, INC., priority 2014, dated 2019):
# Entries after “also recorded” stand apart in the source; their conditions may differ.
# B1: HM165S3B: His-tagged recombinant protein of aMTD165, human SOCS3 and solubilization domain B; prototype improved cell-permeable SOCS3 (protein)
# chain: MGSSHHHHHHSSGLVPRGSHMALAVPVALAIVPVTHSKFPAAGMETSRPLDTSLRLKTFSSKSEYQLVVNAVRKLQESGFYWSAVTGGEANLLLSAEPAGTFLIRDSSDQRHFFTLSVKTQSGTKNLRIQCEGGSFSLQSDPRSTQPVPRFDCVLKLVHHYMETPPPGAPSFPSPPTEPSSEVPEQPSAQPLPGSPPRRAYYIYSGGEKIPLVLSRPLSSNVATLQHLCRKTVNGHLDSYEKVTQLPGPIREFLDQYDAPLGSMAEQSDKDVKYYTLEEIQKHKDSKSTWVILHHKVYDLTKFLEEHPGGEEVLGEQAGGDATENFEDVGHSTDARELSKTYIIGELHPDDRSKIAKPSETL
# modifications: Amino acid sequence of HM165S3B
# Legend:
# HepG2 tumor = test: Anti-tumor activity in cell-derived xenograft model; conditions: for inhibition on the tumor size: observation 3 weeks
# Method: Female Balb/c^nu/nu mice (5-week-old, Doo-Yeol Biotech Co. Ltd. Korea) were subcutaneously implanted with Hep3B2.1-7 tumor block (1 mm^3) into the left back side of the mouse. […] Tumor size was monitored by measuring the longest (length) and shortest dimensions (width) once a day with a dial caliper, and tumor volume was calculated as width2×length×0.5.
# Then, tumor volumes were examined. […] Then, tumor volumes were examined.
# STAT1 = test: Inhibition of IFN-γ-induced STAT phosphorylation in PANC-1 cells (western blot), STAT1; type: cell-based; conditions: PANC-1, 10 ng/ml IFN-γ 15 min, 10 μM protein 2 hrs
# Method: PANC-1 Cells (KCLB, Seoul, South Korea) were treated with 10 ng/ml IFN-γ (R&D systems, Abingdon, UK) for 15 min and treated with either DMEM (vehicle) or 10 μM aMTD/SD-fused SOCS3 recombinant proteins for 2 hrs. The cells were lysed in RIPA lysis buffer (Biosesang, Seongnam, Korea) containing proteinase inhibitor cocktail (Roche, Indianapolis, Ind., USA), incubated for 15 min at 4° C., and centrifuged at 13,000 rpm for 10 min at 4° C. Equal amounts of lysates were separated on 10% SDS-PAGE gels and transferred to a nitrocellulose membrane. The membranes were blocked using 5% skim milk in TBST and for western blot analysis incubated with the following antibodies: anti-phospho-STAT1 (Cell Signaling Technology, USA) and anti-phospho-STAT3 (Cell Signaling Technology, USA), then HRP conjugated anti-rabbit secondary antibody (Santacruz).
# [1] = Tissue-permeability / systemic delivery of FITC-labeled SOCS3 proteins after intraperitoneal injection; type: in vivo, ICR mice
# Method: To further investigate in vivo delivery of SOCS3 recombinant proteins, ICR mice (Doo-Yeol Biotech Co. Ltd., Seoul, Korea) were intraperitoneal (IP) injected with 600 μg/head of 10 μM FITC (Fluorescein isothiocyanate, SIGMA, USA)-labeled SOCS3 proteins and sacrificed after 2 hrs. From the mice, the liver, kidney, spleen, lung, heart, and brain were removed and washed with PBS, and then placed on a dry ice, and embedded with an O.C.T. compound (Sakura). After cryosectioning at 20 μm, tissue distributions of fluorescence-labeled-SOCS3 proteins in different organs was analyzed by fluorescence microscopy (Carl Zeiss, Gottingen, Germany)(FIG. 22).
# The liver tissue permeability was analyzed by the method described in Example 7-2.
# HepG2 cells [2] = test: Invasion assay (matrigel-coated Transwell); type: cell-based, human; conditions: 24 hrs, compared with the control proteins
# Method: The lower surface of Transwell inserts (Costar) was coated with 0.1% gelatin, the upper surface of Transwell inserts was coated with matrigel (40 μg per well; BD Pharmingen, San Diego, Calif., USA), and the membranes were allowed to dry for 1 hr at room temperature. The Transwell inserts were assembled into a 24-well plate, and the lower chamber was filled with growth media containing 10% FBS and FGF2 (40 ng/ml). Cells (5×10^5) were added to each upper chamber, and the plate was incubated at 37° C. in a 5% CO2 incubator for 24 hrs. Migrated cells were stained with 0.6% hematoxylin and 0.5% eosin and counted.
# HepG2 cells [3] = test: Cell-permeability of FITC-labeled SOCS3 recombinant proteins in hepatocellular carcinoma cells (flow cytometry); type: cell-based, human; conditions: 10 μM FITC-labeled protein, 1 hr, 37° C.
# Method: HepG2 cells (ATCC, Manassas, Va., USA) were seeded in a 12 well plate, grown to 90% confluence. Cells were treated with 10 μM FITC-labeled iCP-SOCS3 recombinant proteins and cultivated for 1 hr at 37° C.
# After cultivation, the cells were treated with proteinase K (10 ug/mL, SIGMA, USA) and washed three times with ice-cold PBS (Phosphate-buffered saline, Hyclone, USA) to remove surface-bound proteins, and internalized proteins were measured by flow cytometry (FlowJo cytometric analysis software, Guava, Millipore, Darmstadt, Germany). Untreated cells (gray) and equimolar concentration of unconjugated FITC (FITC only, green)-treated cells were served as control (FIG. 57).
# Chang liver cells = test: Induction of apoptosis, TUNEL assay; type: cell-based, human; conditions: 10 μM, 24 hr, 2% fetal bovine serum
# Method: (§1) Apoptotic cells were analyzed using terminal dUTP nick-end labeling (TUNEL) assay with In Situ Cell Death Detection kit TMR red (Roche, 4056 Basel, Switzerland). Cells were treated for 24 hr with 10 μM HS3B or HM165S3B proteins with 2% fetal bovine serum and apoptotic cells were visualized by TUNEL staining. Treated cells were washed with cold PBS two times, fixed in 4% paraformaldehyde (PFA, Junsei, Tokyo, Japan) for 1 hr at room temperature, and incubated in 0.1% Triton X-100 for 2 min on the ice. Cells were washed with cold PBS twice, and treated TUNEL reaction mixture for 1 hr at 37° C. in dark, washed cold PBS three times and observed by fluorescence microscopy (Nikon, Tokyo, Japan). Cisplatin® (IC50: 30 μM) was used for reference drug.
# Huh7 cells = test: Induction of apoptosis, TUNEL assay; type: cell-based, human; conditions: 10 μM, 24 hr, 2% fetal bovine serum
# Method: as §1
molecule,measurement,setting,value
B1,tumor growth inhibition at day 42,"HepG2 tumor; IV 600 μg/head for 21 days, 3 weeks after termination",67%
same,inhibition on the tumor size,HepG2 tumor; IV 25 mg/kg every day for 3 weeks,60%
same,inhibition on the tumor size,HepG2 tumor; IV 50 mg/kg every day for 3 weeks,76%
same,inhibition on the tumor size,HepG2 tumor; IV 50 mg/kg three times a week for 3 weeks,66%
same,IFN-γ-induced phosphorylation of STAT1,STAT1,suppressed IFN-γ-induced phosphorylation of STAT1 and STAT3
same,tissue distribution / systemic delivery,"[1]; IP 600 μg/head FITC-labeled protein, sacrificed after 2 hrs, liver, kidney, spleen, lung, heart, brain","distributed to a variety of tissues (liver, kidney, spleen, lung, heart and, to a lesser extent, brain); also recorded: showed the highest systemic delivery of SOCS3 protein to the tissues; also recorded: exhibited superior cell-permeability"
same,systemic delivery to liver,[1]; intraperitoneal injection,enhanced the systemic delivery to liver
same,"invasion, HepG2",HepG2 cells [2],remarkable decrease in invasion
same,transduction into HepG2 cells,HepG2 cells [3],promoted the transduction into cultured HCC HepG2 cells
same,"induction of apoptosis (TUNEL), Chang liver cells",Chang liver cells,did not induce apoptosis
same,"induction of apoptosis (TUNEL), Huh7",Huh7 cells,considerably efficient inducer of apoptosis
